Results reported in patent US20240132624A1 (Ablynx, published 2024).

target: T1, human FcRn/b2M (human, UniProt P61769 21-119, biotinylated); assay: SPR pH 6.0;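 note: surface plasmon resonance kinetics at 25 °C, diluted periplasmic extracts injected over immobilized ligand surfaces, 120 s association then 600–3600 s dissociation, running buffer containing 150 mM NaCl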
T1 construct: bought recombinant biotinylated protein (ACRO FCM-H82W4 or Immunitrack ITF01); also called hFcRn; hFcRn/hb2M
Protocol: (§1) All kinetic measurements have been performed on ProteOn XPR36 (BioRad Laboratories, Inc.), MASS-2 (Sierra sensors, Gmbh) or SPR-32 (Bruker Corporation). […] The phytip purified periplasmic extracts were diluted 1:10 in running buffer (CPA+150 mM NaCl+0.005% Tw20 at pH 5.5, pH 6.0 or pH 7.4) and injected over the ligand surfaces (association: 120 s at 45 μL/min; dissociation: 600s-3600 s at 45 μL/min). Experiments were carried out at 25° C.

koff [s⁻¹]	Binder
0.0026	T0263018B11 F29P (VHH, name in Kabat numbering, FLAG3-His6 tagged) VHH: EVQLVESGGGVVQPGGSLRLSCAASGFTPSSYAMYWVRQAPGKGLEWVSAISSGGGSTDYADSVKGRFTISRDNSKNTLYLQMNSLRPEDTALYYCAADTLYTSLTWYSYWGQGTLVTVSS

target: T2, cyno FcRn/b2M (cyno, UniProt Q8SPV9 24-297; Q8SPW0 21-119, biotinylated); assay: SPR pH 6.0;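 note: surface plasmon resonance kinetics at 25 °C, diluted periplasmic extracts injected over immobilized ligand surfaces, 120 s association then 600–3600 s dissociation, running buffer containing 150 mM NaCl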
T2 construct: bought recombinant biotinylated protein (Immunitrack ITF05 or ACRO FCM-C82W5); also called cFcRn; cFcRn/cb2M
T2 sequence (Q8SPV9 24-297 limits assumed, chain 1 of 2): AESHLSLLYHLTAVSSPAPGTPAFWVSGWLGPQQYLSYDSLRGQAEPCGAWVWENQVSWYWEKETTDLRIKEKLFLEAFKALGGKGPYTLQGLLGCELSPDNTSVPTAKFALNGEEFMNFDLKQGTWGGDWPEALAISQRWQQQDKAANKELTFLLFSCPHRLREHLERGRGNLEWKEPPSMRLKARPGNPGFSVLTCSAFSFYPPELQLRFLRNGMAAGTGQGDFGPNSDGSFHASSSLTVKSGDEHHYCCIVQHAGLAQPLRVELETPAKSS
T2 sequence (Q8SPW0 21-119 limits assumed, chain 2 of 2): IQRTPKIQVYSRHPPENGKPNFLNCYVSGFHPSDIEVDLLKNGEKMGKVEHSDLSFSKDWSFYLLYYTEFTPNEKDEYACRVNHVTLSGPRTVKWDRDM
Protocol: as §1

koff [s⁻¹]	Binder
0.0015	T0263018B11 F29I (VHH, name in Kabat numbering, FLAG3-His6 tagged) VHH: EVQLVESGGGVVQPGGSLRLSCAASGFTISSYAMYWVRQAPGKGLEWVSAISSGGGSTDYADSVKGRFTISRDNSKNTLYLQMNSLRPEDTALYYCAADTLYTSLTWYSYWGQGTLVTVSS
0.0019	T0263018B11 F29P (VHH, name in Kabat numbering, FLAG3-His6 tagged) VHH: EVQLVESGGGVVQPGGSLRLSCAASGFTPSSYAMYWVRQAPGKGLEWVSAISSGGGSTDYADSVKGRFTISRDNSKNTLYLQMNSLRPEDTALYYCAADTLYTSLTWYSYWGQGTLVTVSS

target: T2, cyno FcRn/b2M; assay: SPR pH 7.4;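 note: surface plasmon resonance kinetics, periplasmic extracts diluted 1:10 flowed over immobilized target at 25 °C, 120 s association then 600–3600 s dissociation, buffer with 150 mM NaCl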
Protocol: as §1

koff [s⁻¹]	Binder
0.083	T0263018B11 F29I (VHH, name in Kabat numbering, FLAG3-His6 tagged) VHH: EVQLVESGGGVVQPGGSLRLSCAASGFTISSYAMYWVRQAPGKGLEWVSAISSGGGSTDYADSVKGRFTISRDNSKNTLYLQMNSLRPEDTALYYCAADTLYTSLTWYSYWGQGTLVTVSS

target: T2, cyno FcRn/b2M; assay: SPR off-rate; pH 7.4 vs pH 6.0;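 note: surface plasmon resonance with diluted periplasmic extracts flowed over ligand surfaces, 120 s association and 600–3600 s dissociation at 25 °C, running buffer containing 150 mM NaCl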
Protocol: as §1

kd ratio pH 7.4/6.0	Binder
59	T0263018B11 W100cM (VHH, name in Kabat numbering, FLAG3-His6 tagged) VHH: EVQLVESGGGVVQPGGSLRLSCAASGFTFSSYAMYWVRQAPGKGLEWVSAISSGGGSTDYADSVKGRFTISRDNSKNTLYLQMNSLRPEDTALYYCAADTLYTSLTMYSYWGQGTLVTVSS
34	T0263018B11 T57Q (VHH, name in Kabat numbering, FLAG3-His6 tagged) VHH: EVQLVESGGGVVQPGGSLRLSCAASGFTFSSYAMYWVRQAPGKGLEWVSAISSGGGSQDYADSVKGRFTISRDNSKNTLYLQMNSLRPEDTALYYCAADTLYTSLTWYSYWGQGTLVTVSS
71	T0263018B11 W100cE (VHH, name in Kabat numbering, FLAG3-His6 tagged) VHH: EVQLVESGGGVVQPGGSLRLSCAASGFTFSSYAMYWVRQAPGKGLEWVSAISSGGGSTDYADSVKGRFTISRDNSKNTLYLQMNSLRPEDTALYYCAADTLYTSLTEYSYWGQGTLVTVSS
45	T0263018B11 Y98W (VHH, name in Kabat numbering, FLAG3-His6 tagged) VHH: EVQLVESGGGVVQPGGSLRLSCAASGFTFSSYAMYWVRQAPGKGLEWVSAISSGGGSTDYADSVKGRFTISRDNSKNTLYLQMNSLRPEDTALYYCAADTLWTSLTWYSYWGQGTLVTVSS
70	T0263018B11 Y32A (VHH, name in Kabat numbering, FLAG3-His6 tagged) VHH: EVQLVESGGGVVQPGGSLRLSCAASGFTFSSAAMYWVRQAPGKGLEWVSAISSGGGSTDYADSVKGRFTISRDNSKNTLYLQMNSLRPEDTALYYCAADTLYTSLTWYSYWGQGTLVTVSS
36	T0263018B11 T57A (VHH, name in Kabat numbering, FLAG3-His6 tagged) VHH: EVQLVESGGGVVQPGGSLRLSCAASGFTFSSYAMYWVRQAPGKGLEWVSAISSGGGSADYADSVKGRFTISRDNSKNTLYLQMNSLRPEDTALYYCAADTLYTSLTWYSYWGQGTLVTVSS
41	T0263018B11 T57H (VHH, name in Kabat numbering, FLAG3-His6 tagged) VHH: EVQLVESGGGVVQPGGSLRLSCAASGFTFSSYAMYWVRQAPGKGLEWVSAISSGGGSHDYADSVKGRFTISRDNSKNTLYLQMNSLRPEDTALYYCAADTLYTSLTWYSYWGQGTLVTVSS
40	T0263018B11 T57K (VHH, name in Kabat numbering, FLAG3-His6 tagged) VHH: EVQLVESGGGVVQPGGSLRLSCAASGFTFSSYAMYWVRQAPGKGLEWVSAISSGGGSKDYADSVKGRFTISRDNSKNTLYLQMNSLRPEDTALYYCAADTLYTSLTWYSYWGQGTLVTVSS
36	T0263018B11 Y98L (VHH, name in Kabat numbering, FLAG3-His6 tagged) VHH: EVQLVESGGGVVQPGGSLRLSCAASGFTFSSYAMYWVRQAPGKGLEWVSAISSGGGSTDYADSVKGRFTISRDNSKNTLYLQMNSLRPEDTALYYCAADTLLTSLTWYSYWGQGTLVTVSS
54	T0263018B11 T96W (VHH, name in Kabat numbering, FLAG3-His6 tagged) VHH: EVQLVESGGGVVQPGGSLRLSCAASGFTFSSYAMYWVRQAPGKGLEWVSAISSGGGSTDYADSVKGRFTISRDNSKNTLYLQMNSLRPEDTALYYCAADWLYTSLTWYSYWGQGTLVTVSS

The remaining lines, values behind:

Binder	kd ratio pH 7.4/6.0
T0263018B11 A33N (VHH, name in Kabat numbering, FLAG3-His6 tagged) VHH: EVQLVESGGGVVQPGGSLRLSCAASGFTFSSYNMYWVRQAPGKGLEWVSAISSGGGSTDYADSVKGRFTISRDNSKNTLYLQMNSLRPEDTALYYCAADTLYTSLTWYSYWGQGTLVTVSS	49
T0263018B11 S56G (VHH, name in Kabat numbering, FLAG3-His6 tagged) VHH: EVQLVESGGGVVQPGGSLRLSCAASGFTFSSYAMYWVRQAPGKGLEWVSAISSGGGGTDYADSVKGRFTISRDNSKNTLYLQMNSLRPEDTALYYCAADTLYTSLTWYSYWGQGTLVTVSS	54
T0263018B11 F29Y (VHH, name in Kabat numbering, FLAG3-His6 tagged) VHH: EVQLVESGGGVVQPGGSLRLSCAASGFTYSSYAMYWVRQAPGKGLEWVSAISSGGGSTDYADSVKGRFTISRDNSKNTLYLQMNSLRPEDTALYYCAADTLYTSLTWYSYWGQGTLVTVSS	45
T0263018B11 G54T (VHH, name in Kabat numbering, FLAG3-His6 tagged) VHH: EVQLVESGGGVVQPGGSLRLSCAASGFTFSSYAMYWVRQAPGKGLEWVSAISSGTGSTDYADSVKGRFTISRDNSKNTLYLQMNSLRPEDTALYYCAADTLYTSLTWYSYWGQGTLVTVSS	35
T0263018B11 G54V (VHH, name in Kabat numbering, FLAG3-His6 tagged) VHH: EVQLVESGGGVVQPGGSLRLSCAASGFTFSSYAMYWVRQAPGKGLEWVSAISSGVGSTDYADSVKGRFTISRDNSKNTLYLQMNSLRPEDTALYYCAADTLYTSLTWYSYWGQGTLVTVSS	31
T0263018B11 S31G (VHH, name in Kabat numbering, FLAG3-His6 tagged) VHH: EVQLVESGGGVVQPGGSLRLSCAASGFTFSGYAMYWVRQAPGKGLEWVSAISSGGGSTDYADSVKGRFTISRDNSKNTLYLQMNSLRPEDTALYYCAADTLYTSLTWYSYWGQGTLVTVSS	58
T0263018B11 G26A (VHH, name in Kabat numbering, FLAG3-His6 tagged) VHH: EVQLVESGGGVVQPGGSLRLSCAASAFTFSSYAMYWVRQAPGKGLEWVSAISSGGGSTDYADSVKGRFTISRDNSKNTLYLQMNSLRPEDTALYYCAADTLYTSLTWYSYWGQGTLVTVSS	116
T0263018B11 T28M (VHH, name in Kabat numbering, FLAG3-His6 tagged) VHH: EVQLVESGGGVVQPGGSLRLSCAASGFMFSSYAMYWVRQAPGKGLEWVSAISSGGGSTDYADSVKGRFTISRDNSKNTLYLQMNSLRPEDTALYYCAADTLYTSLTWYSYWGQGTLVTVSS	64
T0263018B11 D58S (VHH, name in Kabat numbering, FLAG3-His6 tagged) VHH: EVQLVESGGGVVQPGGSLRLSCAASGFTFSSYAMYWVRQAPGKGLEWVSAISSGGGSTSYADSVKGRFTISRDNSKNTLYLQMNSLRPEDTALYYCAADTLYTSLTWYSYWGQGTLVTVSS	12
T0263018B11 S31A (VHH, name in Kabat numbering, FLAG3-His6 tagged) VHH: EVQLVESGGGVVQPGGSLRLSCAASGFTFSAYAMYWVRQAPGKGLEWVSAISSGGGSTDYADSVKGRFTISRDNSKNTLYLQMNSLRPEDTALYYCAADTLYTSLTWYSYWGQGTLVTVSS	61
T0263018B11 S100L (VHH, name in Kabat numbering, FLAG3-His6 tagged) VHH: EVQLVESGGGVVQPGGSLRLSCAASGFTFSSYAMYWVRQAPGKGLEWVSAISSGGGSTDYADSVKGRFTISRDNSKNTLYLQMNSLRPEDTALYYCAADTLYTLLTWYSYWGQGTLVTVSS	62
T0263018B11 F27M (VHH, name in Kabat numbering, FLAG3-His6 tagged) VHH: EVQLVESGGGVVQPGGSLRLSCAASGMTFSSYAMYWVRQAPGKGLEWVSAISSGGGSTDYADSVKGRFTISRDNSKNTLYLQMNSLRPEDTALYYCAADTLYTSLTWYSYWGQGTLVTVSS	69
T0263018B11 G54D (VHH, name in Kabat numbering, FLAG3-His6 tagged) VHH: EVQLVESGGGVVQPGGSLRLSCAASGFTFSSYAMYWVRQAPGKGLEWVSAISSGDGSTDYADSVKGRFTISRDNSKNTLYLQMNSLRPEDTALYYCAADTLYTSLTWYSYWGQGTLVTVSS	41
T0263018B11 L100aV (VHH, name in Kabat numbering, FLAG3-His6 tagged) VHH: EVQLVESGGGVVQPGGSLRLSCAASGFTFSSYAMYWVRQAPGKGLEWVSAISSGGGSTDYADSVKGRFTISRDNSKNTLYLQMNSLRPEDTALYYCAADTLYTSVTWYSYWGQGTLVTVSS	39
T0263018B11 T28S (VHH, name in Kabat numbering, FLAG3-His6 tagged) VHH: EVQLVESGGGVVQPGGSLRLSCAASGFSFSSYAMYWVRQAPGKGLEWVSAISSGGGSTDYADSVKGRFTISRDNSKNTLYLQMNSLRPEDTALYYCAADTLYTSLTWYSYWGQGTLVTVSS	85
T0263018B11 S31V (VHH, name in Kabat numbering, FLAG3-His6 tagged) VHH: EVQLVESGGGVVQPGGSLRLSCAASGFTFSVYAMYWVRQAPGKGLEWVSAISSGGGSTDYADSVKGRFTISRDNSKNTLYLQMNSLRPEDTALYYCAADTLYTSLTWYSYWGQGTLVTVSS	89
T0263018B11 G26K (VHH, name in Kabat numbering, FLAG3-His6 tagged) VHH: EVQLVESGGGVVQPGGSLRLSCAASKFTFSSYAMYWVRQAPGKGLEWVSAISSGGGSTDYADSVKGRFTISRDNSKNTLYLQMNSLRPEDTALYYCAADTLYTSLTWYSYWGQGTLVTVSS	101
T0263018B11 S30P (VHH, name in Kabat numbering, FLAG3-His6 tagged) VHH: EVQLVESGGGVVQPGGSLRLSCAASGFTFPSYAMYWVRQAPGKGLEWVSAISSGGGSTDYADSVKGRFTISRDNSKNTLYLQMNSLRPEDTALYYCAADTLYTSLTWYSYWGQGTLVTVSS	41
T0263018B11 D58T (VHH, name in Kabat numbering, FLAG3-His6 tagged) VHH: EVQLVESGGGVVQPGGSLRLSCAASGFTFSSYAMYWVRQAPGKGLEWVSAISSGGGSTTYADSVKGRFTISRDNSKNTLYLQMNSLRPEDTALYYCAADTLYTSLTWYSYWGQGTLVTVSS	10
